Legend:
[1] = molecular target: T1, human IL-12Rβ1 on human T cells and NK cells (human, UniProt P42701 24-662); assay: flow cytometry, 200 nM human p40 tetramer (streptavidin-AF647) against streptavidin alone, human PBMC: NK cells and CD8+ T cells ex vivo and CD8+ T cell blasts
T1 construct: whole, on cells

[2] = molecular target: T2, human IL-12Rβ1 (soluble, SPR analyte) (UniProt P42701 24-545, limits assumed); assay: SPR, IL-12Rβ1 over immobilized IL-12p40, steady state affinity model
T2 construct: also called IL-12 receptor beta 1

Binder | binding result [1] | Kd [2]
human p40 tetramer (biotinylated human IL-12p40 on streptavidin-AF647) (ligand, biotinylated, also called human p40 tetramers) IWELKKDVYVVELDWYPDAPGEMVVLTCDTPEEDGITWTLDQSSEVLGSGKTLTIQVKEFGDAGQYTCHKGGEVLSHSLLLLHKKEDGIWSTDILKDQKEPKNKTFLRCEAKNYSGRFTCWWLTTISTDLTFSVKSSRGSSDPQGVTCGAATLSAERVRGDNKEYEYSVECQEDSACPAAEESLPIEVMVDAVHKLKYENYTSSFFIRDIIKPDPPKNLQLKPLKNSRQVEVSWEYPDTWSTPHSYFSLTFCVQVQGKSKREKKDRVFTDKTSATVICRKNASISVRAQDRYYSSSWSEWASVPCSGLNDIFEAQKIEWHEHHHHHH | binds | 
human IL-12p40 (23-328) with C-terminal AviTag and 6x His (ligand, Immobilized partner in the SPR experiment; also called interleukin-12 subunit p40) IWELKKDVYVVELDWYPDAPGEMVVLTCDTPEEDGITWTLDQSSEVLGSGKTLTIQVKEFGDAGQYTCHKGGEVLSHSLLLLHKKEDGIWSTDILKDQKEPKNKTFLRCEAKNYSGRFTCWWLTTISTDLTFSVKSSRGSSDPQGVTCGAATLSAERVRGDNKEYEYSVECQEDSACPAAEESLPIEVMVDAVHKLKYENYTSSFFIRDIIKPDPPKNLQLKPLKNSRQVEVSWEYPDTWSTPHSYFSLTFCVQVQGKSKREKKDRVFTDKTSATVICRKNASISVRAQDRYYSSSWSEWASVPCSGLNDIFEAQKIEWHEHHHHHH |  | 1700 nM

From US20230220031A1 (Stanford University, published 2023)
